Test results: paper PMC3791872, “Ciprofloxacin is an inhibitor of the Mcm2-7 replicative helicase”

Legend:
Assay in all cases: double filter binding; 1 mM ciprofloxacin (modest effect); Double filter binding, 150 nM helicase hexamer, 4 nM ssDNA, 20 min inhibitor preincubation at 37 C; binding buffer not stated in the material (helicase buffer:)
[1] = biological target: Mcm467 (UniProt P30665;P53091;P38132 1-933;1-1017;1-845); conditions: chain copies: 2;2;2; label: 5'-32P; single strand
[2] = biological target: Mcm2-7 (UniProt P29469;P24279;P30665;P29496;P53091;P38132 1-868;1-971;1-933;1-775;1-1017;1-845); conditions: copies: 1;1;1;1;1;1; label: 5'-32P; single strand
[3] = biological target: SV40 large T antigen (TAg) (SV40, UniProt P03070 1-708); conditions: chain copies: 6; label: 5'-32P; single strand
Sequence of SV40 large T antigen (TAg) (P03070 whole entry): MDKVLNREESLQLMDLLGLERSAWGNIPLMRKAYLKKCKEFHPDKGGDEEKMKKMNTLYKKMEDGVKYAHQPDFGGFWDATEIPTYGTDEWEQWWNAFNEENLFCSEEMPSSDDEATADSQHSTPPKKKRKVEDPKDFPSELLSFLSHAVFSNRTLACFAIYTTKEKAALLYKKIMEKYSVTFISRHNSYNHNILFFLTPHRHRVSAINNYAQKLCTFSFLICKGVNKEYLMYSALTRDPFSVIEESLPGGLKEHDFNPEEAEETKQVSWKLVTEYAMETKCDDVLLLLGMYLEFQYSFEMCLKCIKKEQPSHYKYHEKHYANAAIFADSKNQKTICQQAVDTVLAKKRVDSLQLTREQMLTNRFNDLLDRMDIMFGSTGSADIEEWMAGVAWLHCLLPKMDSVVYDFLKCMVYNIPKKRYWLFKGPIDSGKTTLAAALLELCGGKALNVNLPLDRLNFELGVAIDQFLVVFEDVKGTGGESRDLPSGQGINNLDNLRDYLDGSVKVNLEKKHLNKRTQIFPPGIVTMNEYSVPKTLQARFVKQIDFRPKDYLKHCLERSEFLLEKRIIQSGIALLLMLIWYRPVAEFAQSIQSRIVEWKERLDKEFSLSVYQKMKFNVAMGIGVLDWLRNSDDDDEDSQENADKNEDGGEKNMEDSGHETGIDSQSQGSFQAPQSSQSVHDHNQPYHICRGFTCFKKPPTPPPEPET

Measured: binding result

Sequence of Mcm467 (P30665 whole entry, chain 1 of 3): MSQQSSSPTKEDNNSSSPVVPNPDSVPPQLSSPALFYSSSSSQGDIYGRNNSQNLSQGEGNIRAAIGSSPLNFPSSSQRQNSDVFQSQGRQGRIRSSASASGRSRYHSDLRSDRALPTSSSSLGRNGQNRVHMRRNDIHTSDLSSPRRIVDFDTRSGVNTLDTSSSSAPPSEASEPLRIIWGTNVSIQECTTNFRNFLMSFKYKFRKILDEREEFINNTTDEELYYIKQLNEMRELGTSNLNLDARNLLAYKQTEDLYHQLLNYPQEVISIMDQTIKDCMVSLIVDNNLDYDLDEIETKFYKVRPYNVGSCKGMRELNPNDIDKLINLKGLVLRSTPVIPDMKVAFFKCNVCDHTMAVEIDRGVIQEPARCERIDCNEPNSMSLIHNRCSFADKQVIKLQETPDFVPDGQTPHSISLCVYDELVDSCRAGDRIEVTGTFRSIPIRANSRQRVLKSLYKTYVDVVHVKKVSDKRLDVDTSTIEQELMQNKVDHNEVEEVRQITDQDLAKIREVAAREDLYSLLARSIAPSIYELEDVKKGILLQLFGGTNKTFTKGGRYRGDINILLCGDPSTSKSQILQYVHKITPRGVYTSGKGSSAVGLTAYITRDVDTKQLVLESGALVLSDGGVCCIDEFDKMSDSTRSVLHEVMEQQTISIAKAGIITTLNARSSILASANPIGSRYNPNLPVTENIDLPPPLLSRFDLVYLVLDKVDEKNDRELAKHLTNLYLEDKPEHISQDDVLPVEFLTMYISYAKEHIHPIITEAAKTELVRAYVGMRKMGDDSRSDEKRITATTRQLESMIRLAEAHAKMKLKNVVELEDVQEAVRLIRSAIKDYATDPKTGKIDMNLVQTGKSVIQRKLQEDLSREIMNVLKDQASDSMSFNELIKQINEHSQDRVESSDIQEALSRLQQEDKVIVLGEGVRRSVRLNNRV
Sequence of Mcm467 (P53091 whole entry, chain 2 of 3): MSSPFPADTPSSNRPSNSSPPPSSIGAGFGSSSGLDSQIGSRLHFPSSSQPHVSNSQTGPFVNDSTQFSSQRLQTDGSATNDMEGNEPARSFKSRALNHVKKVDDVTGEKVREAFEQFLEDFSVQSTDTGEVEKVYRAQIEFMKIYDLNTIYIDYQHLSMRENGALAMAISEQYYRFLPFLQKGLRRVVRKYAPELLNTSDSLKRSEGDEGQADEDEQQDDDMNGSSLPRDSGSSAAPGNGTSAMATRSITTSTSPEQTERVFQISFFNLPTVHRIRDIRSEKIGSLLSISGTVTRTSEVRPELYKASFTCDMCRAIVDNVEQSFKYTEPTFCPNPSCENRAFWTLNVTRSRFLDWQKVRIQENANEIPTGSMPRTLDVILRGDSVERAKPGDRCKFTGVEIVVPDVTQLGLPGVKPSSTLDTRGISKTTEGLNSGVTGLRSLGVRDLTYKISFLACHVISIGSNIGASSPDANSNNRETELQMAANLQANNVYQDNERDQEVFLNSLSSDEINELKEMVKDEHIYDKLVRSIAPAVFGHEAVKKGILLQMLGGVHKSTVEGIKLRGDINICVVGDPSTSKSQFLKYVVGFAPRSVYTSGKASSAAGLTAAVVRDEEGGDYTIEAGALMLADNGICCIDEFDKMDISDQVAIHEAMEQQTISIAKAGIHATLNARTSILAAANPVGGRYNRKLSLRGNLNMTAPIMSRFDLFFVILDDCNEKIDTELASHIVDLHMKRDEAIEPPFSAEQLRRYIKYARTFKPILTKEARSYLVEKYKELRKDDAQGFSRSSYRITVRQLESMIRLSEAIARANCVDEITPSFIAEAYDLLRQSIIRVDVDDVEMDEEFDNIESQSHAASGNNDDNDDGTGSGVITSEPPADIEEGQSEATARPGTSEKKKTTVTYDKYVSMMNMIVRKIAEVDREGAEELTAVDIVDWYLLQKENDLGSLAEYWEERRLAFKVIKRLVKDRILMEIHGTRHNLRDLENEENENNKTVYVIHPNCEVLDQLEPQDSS
Sequence of Mcm467 (P38132 whole entry, chain 3 of 3): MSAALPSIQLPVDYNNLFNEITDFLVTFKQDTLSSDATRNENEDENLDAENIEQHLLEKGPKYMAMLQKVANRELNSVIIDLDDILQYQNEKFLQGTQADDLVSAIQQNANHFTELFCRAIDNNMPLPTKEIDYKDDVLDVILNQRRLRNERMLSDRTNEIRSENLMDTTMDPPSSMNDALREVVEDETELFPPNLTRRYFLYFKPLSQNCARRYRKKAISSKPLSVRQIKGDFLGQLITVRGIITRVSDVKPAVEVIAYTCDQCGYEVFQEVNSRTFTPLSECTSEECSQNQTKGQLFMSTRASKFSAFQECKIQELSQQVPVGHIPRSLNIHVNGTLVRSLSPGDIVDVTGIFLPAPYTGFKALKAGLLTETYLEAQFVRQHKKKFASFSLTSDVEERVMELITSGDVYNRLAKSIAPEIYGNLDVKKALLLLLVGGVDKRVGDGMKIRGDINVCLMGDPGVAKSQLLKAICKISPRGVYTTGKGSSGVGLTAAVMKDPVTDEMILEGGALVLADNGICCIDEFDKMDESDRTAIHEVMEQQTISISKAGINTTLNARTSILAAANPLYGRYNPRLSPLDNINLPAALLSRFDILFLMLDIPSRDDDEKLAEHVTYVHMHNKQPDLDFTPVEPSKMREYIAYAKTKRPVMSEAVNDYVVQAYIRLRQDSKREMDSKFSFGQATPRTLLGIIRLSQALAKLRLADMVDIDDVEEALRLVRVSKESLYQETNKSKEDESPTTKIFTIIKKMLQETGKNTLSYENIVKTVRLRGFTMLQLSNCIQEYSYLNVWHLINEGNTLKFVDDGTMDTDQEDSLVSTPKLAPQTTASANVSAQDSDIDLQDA

B1: oligo 826 (ssDNA)
DNA: TGTCTAATCCCGAAAGGCCCTGCCACTGAAATCAACACCTAAAGCATTGA
binds: [1] | [2] | [3]
